The numbers were not newly measured in paper PMC7602216, which cites them from elsewhere.

Usually Kd stands for the equilibrium constant for the complex coming apart.

The series addresses UBA5 UIS (Homo sapiens) (UniProt Q9GZZ9). In words: ITC.

Regarding UFM1 (from UniProt P61960), the Kd is 8 µM.
